The text below walks through data of patent US20180036441A1 (Dana-Farber, published 2018).

For one assay, the target named is T1, MUC1-SEA-His protein (UniProt P15941 1039-1148, limits assumed).
T1 construct: domain: SEA; Recombinant antigen used for ELISA coating and as Biacore analyte; also called MUC-SEA-His; antigen protein; not shown: His tag
T1 sequence (looked up): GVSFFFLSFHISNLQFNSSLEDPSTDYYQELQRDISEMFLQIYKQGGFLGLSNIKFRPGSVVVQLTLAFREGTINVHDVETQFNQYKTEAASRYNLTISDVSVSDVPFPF
The assay is described as follows: SPR Biacore T200, antibody captured, antigen as analyte. Here is the method:
Antibody affinity was determined using a Surface Plasmon Resonance (SPR) biosensor, Biacore T200 (GE Healthcare). Antibody was immobilized on the sensor chip through Fc capture method. Antigen protein was used as the analyte. The data of dissociation (kd) and association (ka) rate constants were obtained using Biacore T200 evaluation software. The apparent equilibrium dissociation constants (KD) were calculated from the ratio of kd over ka. For affinity ranking, twenty-five humanized antibodies plus chimericantibody were injected and captured on sensor chip individually. The antibodies were ranked based on their dissociation rates (kd).

The target of assay [1] is T2, MUC1 on HCT116/MUC1 cells (UniProt P15941 24-1255, limits assumed).
T2 construct: whole, on cells; also called MUC1 overexpressed cell line
T2 sequence (P15941 24-1255 limits assumed): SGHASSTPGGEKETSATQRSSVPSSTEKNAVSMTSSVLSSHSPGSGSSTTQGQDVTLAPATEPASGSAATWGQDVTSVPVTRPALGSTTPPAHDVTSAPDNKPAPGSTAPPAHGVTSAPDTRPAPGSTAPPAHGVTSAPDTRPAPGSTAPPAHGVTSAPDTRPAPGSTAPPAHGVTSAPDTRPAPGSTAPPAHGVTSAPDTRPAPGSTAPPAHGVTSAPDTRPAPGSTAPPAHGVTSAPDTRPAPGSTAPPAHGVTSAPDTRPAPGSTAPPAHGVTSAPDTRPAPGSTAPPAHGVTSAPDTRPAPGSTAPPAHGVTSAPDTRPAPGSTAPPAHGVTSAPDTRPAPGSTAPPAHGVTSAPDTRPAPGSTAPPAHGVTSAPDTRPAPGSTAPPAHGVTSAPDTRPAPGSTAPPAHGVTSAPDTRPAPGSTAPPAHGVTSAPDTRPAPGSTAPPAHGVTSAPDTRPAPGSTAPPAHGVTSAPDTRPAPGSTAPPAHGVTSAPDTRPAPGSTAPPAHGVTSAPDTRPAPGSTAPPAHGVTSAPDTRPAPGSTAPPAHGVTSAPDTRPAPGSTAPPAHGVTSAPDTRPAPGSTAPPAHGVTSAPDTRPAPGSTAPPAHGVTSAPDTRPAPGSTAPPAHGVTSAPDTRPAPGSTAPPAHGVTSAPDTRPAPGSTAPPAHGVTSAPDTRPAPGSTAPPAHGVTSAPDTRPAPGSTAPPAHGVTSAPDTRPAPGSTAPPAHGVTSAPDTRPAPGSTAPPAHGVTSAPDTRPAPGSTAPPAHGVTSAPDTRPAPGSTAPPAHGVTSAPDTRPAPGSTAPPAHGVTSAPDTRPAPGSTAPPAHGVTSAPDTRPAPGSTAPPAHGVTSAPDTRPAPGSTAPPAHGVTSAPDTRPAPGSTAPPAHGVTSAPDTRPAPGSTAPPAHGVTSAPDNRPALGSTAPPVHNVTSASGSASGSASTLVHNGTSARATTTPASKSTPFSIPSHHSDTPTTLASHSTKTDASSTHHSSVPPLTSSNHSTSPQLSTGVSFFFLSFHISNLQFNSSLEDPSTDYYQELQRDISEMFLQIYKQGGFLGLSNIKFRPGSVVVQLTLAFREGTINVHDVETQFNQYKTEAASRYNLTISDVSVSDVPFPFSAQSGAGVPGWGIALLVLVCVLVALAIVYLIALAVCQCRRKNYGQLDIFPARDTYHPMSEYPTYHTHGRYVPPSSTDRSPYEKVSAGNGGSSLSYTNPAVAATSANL
The assay is described as follows: FACS titration, HCT116/MUC1 cells, antibody at 7.812 nM. Here is the method: (§1) To assess cell binding, 2×10⁵ HCT116/MUC1 cells per well were washed with PBS twice and incubated in 200 μl of serial dilutions of chimeric or humanized antibodies for 1 hour at room temperature. After washing 3 times with PBS, secondary antibody (2 μg/ml Alexa Flour®488 goat anti-human IgG) was added to cells and incubated for 30 minutes at room temperature. After washing with PBS, cells were analyzed by using FACSCalibur (BD Bioscience, San Jose, Calif.) and Flowjo software.

Assay [2] addresses T2, MUC1 on HCT116/MUC1 cells. As to the kind of experiment: FACS titration, HCT116/MUC1 cells, antibody at 3.906 nM. The protocol: as §1
In assay [3] the target is T2, MUC1 on HCT116/MUC1 cells. The assay is described as follows: FACS titration, HCT116/MUC1 cells, antibody at 1.953 nM. Here is the method:
as §1

For assay [4], the target named is T2, MUC1 on HCT116/MUC1 cells. The assay is described as follows: FACS titration, HCT116/MUC1 cells, antibody at 0.244 nM. Here is the method:
as §1

Assay [5] concerns the target T2, MUC1 on HCT116/MUC1 cells. The assay is described as follows: FACS titration, HCT116/MUC1 cells, antibody at 500 nM. Here is the method:
as §1

Assay [6] has as its target T2, MUC1 on HCT116/MUC1 cells. As to the kind of experiment: FACS titration, HCT116/MUC1 cells, antibody at 0.977 nM. The protocol: as §1
For assay [7], the target named is T2, MUC1 on HCT116/MUC1 cells. As to the kind of experiment: FACS titration on HCT116/MUC1 cells. The protocol:
as §1

For assay [8], the target named is T2, MUC1 on HCT116/MUC1 cells. As to the kind of experiment: FACS titration, HCT116/MUC1 cells, antibody at 250 nM. The protocol:
as §1

Assay [9] deals with T2, MUC1 on HCT116/MUC1 cells. The assay is described as follows: FACS titration, HCT116/MUC1 cells, antibody at 62.5 nM. The protocol:
as §1

Assay [10] deals with T2, MUC1 on HCT116/MUC1 cells. The assay is described as follows: FACS titration, HCT116/MUC1 cells, antibody at 15.625 nM. The protocol: as §1
In assay [11] the target is T2, MUC1 on HCT116/MUC1 cells. As to the kind of experiment: FACS titration, HCT116/MUC1 cells, antibody at 0.488 nM. Here is the method: as §1
Assay [12] deals with T2, MUC1 on HCT116/MUC1 cells. As to the kind of experiment: FACS titration, HCT116/MUC1 cells, antibody at 125 nM. Here is the method:
as §1

The target in assay [13] is T2, MUC1 on HCT116/MUC1 cells. As to the kind of experiment: FACS titration, HCT116/MUC1 cells, antibody at 31.25 nM. Here is the method:
as §1

B1: VH5 + VL1 (antibody, V domains shown)
VH: EVQLVQSGAEVKKPGESLKISCKGSGYAFSNFWMNWVRQMPGKGLEWMGQIYPGDGDTNYNGKFKGQVTISADKSISTAYLQWSSLKASDTAMYYCARSYYRSAWFAYWGQGTLVTVSL
VL: EIVLTQSPDFQSVTPKEKVTITCRASQSIGTSIHWYQQKPDQSPKLLIKYASESISGVPSRFSGSGSGTDFTLTINSLEAEDAATYYCQQSNNWPLTFGQGTKVEIK
notes: Humanized IgG expressed in HEK293; also called humanized antibody VH5+VL1
For orientation: koff means the first-order rate constant of dissociation. As usually defined, the EC50 is the concentration giving half of the maximal effect. Higher therefore signals a need for much substance. In the assay with MUC1-SEA-His protein, B1 registered a koff of 0.00192 s⁻¹. Besides, the geometric mean is 29.7 in [1]; 20 in assay [2]; 7.02 in [3]; 2.67 in assay [4]; 316 in assay [5]; 4.25 in [6]. For the same molecule, the geometric mean amounted to 327 in assay [8]; 291 in assay [9]; 91.2 in assay [10]; 2.93 in assay [11]; 326 in assay [12]; 219 in [13]. This molecule also showed an EC50 in assay [7] of 23.6 nM.
